Source: patent publication US7056679 (ANTYRA, dated 2006)

Experiments:
DGI-2 polypeptide [1] = target: T1, DGI-2 polypeptide (UniProt Q15004 1-111, limits assumed); test: phage ELISA, 405 nm; DGI-2 coated
T1 construct: Vector-derived residues or tag of pIVEX2.3 are not described for this construct; also called KIAA0101
T1 sequence (looked up): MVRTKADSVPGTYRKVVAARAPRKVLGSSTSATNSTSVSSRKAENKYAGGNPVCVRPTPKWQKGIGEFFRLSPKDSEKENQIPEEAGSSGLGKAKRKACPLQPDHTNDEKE
Experimental: (§1) For analysis of individual target binders, colonies were picked and phage prepared as described above using helper phage, M13KO7. Ninety-six-well microtiter plates were coated with 500 ng/well of specific target protein, 500 ng/well lactate dehydrogenase (LDH) irrelevant or non-specific target, 500 ng/well of positive control antibody raised against ETAG, and negative control of non-fat milk powder-PBS 2% at 4° C. overnight. Plates were then blocked with 350 microliters/well PBS containing 2% non-fat milk for 1 hr at room temperature. One hundred microliters per well of phage from isolated clones were added and plates were incubated at room temperature for 2 hr after centrifuging samples for 20 minutes at 3500 rpm at 4° C. The phage solution was then removed, and the wells were washed three times with PBS at room temperature. Antibody raised against M13 conjugated to horseradish peroxidase (Pharmacia) was diluted 1:3000 in PBS-Tween and added to each well (100 µl/well). Incubation was for 1 hr at room temperature, followed by washing with PBS-(0.5%) Tween 3 times as described. Color was developed by addition of ABTS solution (100 µl/well; Boehringer, Indianapolis, Ind.). Plates were analyzed at 405 nm. A clone was considered "positive" if the $A405$ of the well was $\geq$2-fold over background.

[2] = target: T2, antibody raised against ETAG; test: phage ELISA, 405 nm; anti-E-tag antibody coated
T2 construct: read-out of display; also called E-tag antibody; E tag antibody
Experimental: as §1

DGI-2 polypeptide [3] = target: T1, DGI-2 polypeptide; test: phage ELISA, 405 nm; DGI-2 signal over LDH signal
Experimental: as §1

DGI-2 polypeptide [4] = target: T3, DGI-2 polypeptide (UniProt Q15004 1-111, limits assumed); test: phage ELISA
T3 construct: Soluble recombinant protein coated at 500 ng/well; vector tag of pIVEX2.3-MCS not described for this construct; also called KIAA0101
T3 sequence (looked up): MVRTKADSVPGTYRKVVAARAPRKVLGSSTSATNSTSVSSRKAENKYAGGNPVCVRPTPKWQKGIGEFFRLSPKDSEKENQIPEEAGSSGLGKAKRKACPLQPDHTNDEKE
How it was run: (§2)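 Phage from individual clones were bound for 2 h at RT to wells coated with 500 ng DGI-2, LDH (non-specific), anti-E-tag antibody (positive control) or milk (negative control). Bound phage were detected with HRP-anti-M13 and ABTS at A405; positive clones gave ≥2-fold signal over background.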

[5] = target: T4, lactate dehydrogenase (LDH); test: phage ELISA
T4 construct: Coated at 500 ng/well as non-specific target; also called LDH polypeptide
How it was run: as §2

[6] = target: T5, antibody raised against ETAG; test: phage ELISA
T5 construct: Coated at 500 ng/well; also called E-tag antibody
How it was run: as §2

Binder	DGI-2 (OD) (DGI-2 polypeptide [1])	ETAG (OD) [2]	DGI-2/LDH (OD) (DGI-2 polypeptide [3])	DGI-2 (OD) (DGI-2 polypeptide [4])	DGI-2/LDH (DGI-2 polypeptide [4])	LDH (OD) [5]	ETAG (OD) [6]
GSVLERGCLEFSGFCFSLGHAAAGAPVPYPDPLEPRP (not shown: phage gene III coat protein (pCANTAB5E)) [DGI-2-20F-3-C1]	3.4 OD	14 OD	3.4 ratio				
MGSLGPFGNINSLASGIGSVRNRPLLPLHGSPAAAGAPVPYPDPLEPRP (not shown: phage gene III coat protein (pCANTAB5E)) [DGI-2-40F-3-D72]	3.1 OD	14 OD	2.8 ratio				
GLRACDTYLGFCVGARRIDDAAAGAPVPYPDPLEPRP (not shown: phage gene III coat protein (pCANTAB5E)) [DGI-2-20F-3-B102]	2.4 OD	18 OD	2.5 ratio				
RFWSVSYQGGRVMCREWGYCLPIAAAGAPVPYPDPLEPRP (not shown: phage gene III coat protein (pCANTAB5E)) [DGI-2-40F-3-C92]	2.1 OD	9.8 OD	2.6 ratio				
LHFGSVMGWRPPGSLWSRPFGQVHPRSWSGSAAAGAPVPYPDPLEPRP (not shown: phage gene III coat protein (pCANTAB5E)) [DGI-2-40F-3-D11]	3.8 OD	10.5 OD	2.9 ratio				
SRPGWCSRGTAWGFPGCSSSAAAGAPVPYPDPLEPRP [DGI-2-20R-3-C4]				4.5 OD	4.2 ratio	1.1 OD	19.1 OD
TANGHRYGGCGLWCKWMSGMAAAGAPVPYPDPLEPRP (not shown: phage gene III coat protein (pCANTAB5E)) [DGI-2-20R-4-E2]	2.7 OD	18.2 OD	2.5 ratio				
RWSICRGLQYSIPGCAVEDLSDVMAAAAGAPVPYPDPLEPRP (not shown: phage gene III coat protein (pCANTAB5E)) [DGI-2-20C-4-H316]	3.8 OD	7.2 OD	3.9 ratio				
DGI-2-40F-3-D7 (not shown: phage gene III coat protein (pCANTAB5E)) peptide: ALRSLGSGGFGWQAGRASPQGMTHFPYFGWSGMPTARVRPAAAGAPVPYPDPLEPRP	2.6 OD	10.3 OD	2.6 ratio				
DGI-2-40F-3-C6 (not shown: phage gene III coat protein (pCANTAB5E)) peptide: QMFSKGNWLAHPEGGVALGLSRESQLFRSCREFGYCMGPMAAAGAPVPYPDPLEPRP	2.3 OD	10.1 OD	2.8 ratio				
DGI-2-40F-3-D12 (not shown: phage gene III coat protein (pCANTAB5E)) peptide: QGSAHVVRPPGVYDVPWKVGMFFHPQNWPNSWGRAYFRSGAAAGAPVPYPDPLEPRP	2.3 OD	7.3 OD	2.5 ratio				
DGI-2-40F-3-B11 (not shown: phage gene III coat protein (pCANTAB5E)) peptide: LAPMFLQNQVRTWAASRRPLPAGPSNARCETGSLSPWVPCAAAGAPVPYPDPLEPRP	1.8 OD	7.9 OD	2 ratio				
MSTLQGPGHLFQMLRRASLGAAAGAPVPYPDPLEPRP (not shown: phage gene III coat protein (pCANTAB5E)) [DGI-2-20R-4-H12]	3.7 OD	10.9 OD	2.8 ratio				
LSLLSVVVRSMGASAPQRQVAAAGAPVPYPDPLEPRP (not shown: phage gene III coat protein (pCANTAB5E)) [DGI-2-20F-3-A7]	2.1 OD	7 OD	2.4 ratio				
LSHPMSPLRAASQMALTQGVAAAGAPVPYPDPLEPRP (not shown: phage gene III coat protein (pCANTAB5E)) [DGI-2-20R-4-H7]	3.1 OD	14.1 OD	2.6 ratio				
DGI-2-40F-4-F12 (not shown: phage gene III coat protein (pCANTAB5E)) peptide: GLYRRAGDASVGFSRWGRFDCQVYFSVECLLGSSWGGYSAAAGAPVPYPDPLEPRP	2.2 OD	8.7 OD	2.5 ratio				
LQIVRPAGWKMPGQVGYYIGAAAGAPVPYPDPLEPRP (not shown: phage gene III coat protein (pCANTAB5E)) [DGI-2-20R-3-A9]	3.4 OD	14.3 OD	3.4 ratio				
DAGIGWVGSMWFPPGCIGACAAAGAPVPYPDPLEPRP (not shown: phage gene III coat protein (pCANTAB5E)) [DGI-2-20R-4-E82]	3.9 OD	19.6 OD	3.7 ratio				
TSCQVMFLAGQHLLSRVPRLAAAGAPVPYPDPLEPRP (not shown: phage gene III coat protein (pCANTAB5E)) [DGL-2-20R-3-B6]	2.8 OD	11.7 OD	2.7 ratio				
TPDRCLIYSSIQCLLEYSARRGSADAAAGAPVPYPDPLEPRP (not shown: phage gene III coat protein (pCANTAB5E)) [DGI-2-20C-3-C65]	1.8 OD	7.4 OD	1.8 ratio				
GNKCFPPHDLFWDPCDQLQSAAAGAPVPYPDPLEPRP (not shown: phage gene III coat protein (pCANTAB5E)) [DGI-2-20R-4-F6]	2.3 OD	13.2 OD	2.3 ratio				
SWRLWVSGELQGDRRKGLRGAAAGAPVPYPDPLEPRP (not shown: phage gene III coat protein (pCANTAB5E)) [DGI-2-20R-3-B7]	3.1 OD	11.7 OD	3 ratio				
RNWLDKDCVWMGDCGARAGEAAAGAPVPYPDPLEPRP (not shown: phage gene III coat protein (pCANTAB5E)) [DGI-2-20F-4-E3]	3.8 OD	16.9 OD	4.1 ratio				
MSSTAWTDRILQRGIGLGPVAAAGAPVPYPDPLEPRP [DGI-2-20R-4-F1212]				4 OD	3.3 ratio	1.2 OD	9.8 OD
SLSLYWDAQVGCEVFWGYCVAAAGAPVPYPDPLEPRP (not shown: phage gene III coat protein (pCANTAB5E)) [DGI-2-20R-3-C10]	2.2 OD	14.7 OD	2.1 ratio				
ACSVGTALVFPQRWWYLGRSAAAGAPVPYPDPLEPRP (not shown: phage gene III coat protein (pCANTAB5E)) [DGL-2-20R-3-D6]	2.2 OD	12.9 OD	2.1 ratio				
DGI-2-40F-3-D6 (not shown: phage gene III coat protein (pCANTAB5E)) peptide: GLEPVPFQTDKRIAMGWTREWLVNGYGAAHRRDARMQSGHAAAGAPVPYPDPLEPRP	2.5 OD	11.4 OD	2.6 ratio				
LTPYSLARSWLSGRPSTGATAAAGAPVPYPDPLEPRP (not shown: phage gene III coat protein (pCANTAB5E)) [DGI-2-20F-3-C12]	3.2 OD	15.1 OD	3.1 ratio				
REFFNQASRGAWGYMFREWVEGAAAGAPVPYPDPLEPRP [DGI-2-40F-3-A1]				4.5 OD	5.2 ratio	0.9 OD	9.9 OD
DGI-2-40F-4-F6 (not shown: phage gene III coat protein (pCANTAB5E)) peptide: SYRNFAMQSSLQVRRGSVVEDGTCWWEGVRCYSGAAAGAPVPYPDPLEPRP	3.2 OD	13.5 OD	3.2 ratio				
